Target: EGFR on cells (H322M) (human), P00533
Assay: cell-based or functional assay

B1: humanized <EGFR>ICR62 (antibody, V domains shown)
VH: QVQLVQSGAEVKKPGSSVKVSCKASGFTFTDYKIHWVRQAPGQGLEWMGYFNPNSGYSTYAQKFQGRVTITADKSTSTAYMELSSLRSEDTAVYYCARLSPGGYYVMDAWGQGTTVTVSS
VL: DIQMTQSPSSLSASVGDRVTITCRASQGINNYLNWYQQKPGKAPKRLIYNTNNLQTGVPSRFSGSGSGTEFTLTISSLQPEDFATYYCLQHNSFPTFGQGTKLEIKRT
- reduction of cell growth, H322M spheroids, 7 days, 100 nM, Celltiter Glow: 77%
